What all share (settings): both partners purified
In test [1] the target is T1, full-length human Bcl-2 protein (human, UniProt P10415 1-239).
T1 construct: three additional N-terminal residues left by the design of the pET-15b expression vector; Bcl-2 (B-cell lymphoma 2), human, full length, 239 aa; 15N (or 13C,15N) uniformly labelled for NMR; Surmise: GSH is what is left after the pET-15b His tag is cut off with thrombin; also called B-cell lymphoma 2; intact human Bcl-2; source: in DPC micelles
In words: NMR titration; Bax-BH3 peptide added at 1:1, 1:3, 1:6 and 1:12 molar ratio to 0.3 mM Bcl-2 or 0.25 mM Bcl-2 ΔTM; 1H-15N TROSY-HSQC, chemical shift perturbations; 5 mM DPC micelles, 20 mM NaPi, 20 mM NaCl, 2 mM TCEP, pH 6.0, 310 K.

The target of the next test is T2, Bcl-2 ΔTM (aa 1-207) (human, UniProt P10415 1-207).
T2 construct: three additional N-terminal residues left by the design of the pET-15b expression vector; Bcl-2, human, residues 1-207; a stop codon ends the protein at position 207; 15N labelled for NMR; Made from the full-length construct by site-directed mutagenesis (stop codon TAA); also called Bcl-2 ∆TM; soluble variant with the C-terminal anchor removed; source: E. coli, pET-15b, purified as the …
Described as above.

Test [2] deals with T3, Bim (138-174) BH3 peptide from Homo sapiens (Homo sapiens, N-terminal acetyl (Ac-); C-terminal amide (-NH2)).
T3 construct: Bim, Homo sapiens, residues 138-174; The peptide formed a colloidal suspension in buffer; spectra were recorded on clear samples after centrifugation; also called Bim-BH3 peptide; Bim peptide; source: synthetic peptide, bought: GenScript
In words: NMR titration; Bim-BH3 peptide added at 1:1, 1:3 and 1:6 molar ratio to 0.4 mM Bcl-2ΔN(1-82); 1H-15N TROSY-HSQC; 5 mM DPC micelles, 20 mM NaPi, 20 mM NaCl, 2 mM TCEP, pH 6.0; clear samples after centrifugation.

Test [3] deals with T1, full-length human Bcl-2 protein. As to the kind of experiment: NMR titration; Nur77 peptide added at 1:6, 1:12 and 1:24 molar ratio to 0.3 mM Bcl-2; 1H-15N TROSY-HSQC, chemical shift perturbations; 5 mM DPC micelles, 20 mM NaPi, 20 mM NaCl, 2 mM TCEP, pH 6.0.

T2 sequence (P10415 other isoform, or with tags, fused parts or gaps mutant): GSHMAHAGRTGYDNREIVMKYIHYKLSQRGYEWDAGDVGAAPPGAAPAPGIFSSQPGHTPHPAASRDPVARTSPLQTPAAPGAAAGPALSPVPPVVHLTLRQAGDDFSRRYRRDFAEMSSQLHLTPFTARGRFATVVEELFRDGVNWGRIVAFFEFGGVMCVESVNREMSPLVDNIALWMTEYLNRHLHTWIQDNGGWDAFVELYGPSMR
T3 sequence (peptide, as listed by the source): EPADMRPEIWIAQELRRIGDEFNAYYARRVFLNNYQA

B1: 36-mer Bax-BH3 peptide from Mus musculus (peptide)
peptide: Ac-QPPQDASTKKLSECLRRIGDELDSNMELQRMIADVD-NH2
notes: Bax, Mus musculus, BH3 region, 36 residues; also called Bax-derived BH3 peptide; source: synthetic peptide, bought: GenScript
In the case of B1, the binding result (in test [1]; with Bcl-2 ΔTM (aa 1-207)) was “binds” in each case.

B2: Bcl-2 ΔN(1-82) (domain or fragment, human)
chain: GSHMGPALSPVPPVVHLTLRQAGDDFSRRYRRDFAEMSSQLHLTPFTARGRFATVVEELFRDGVNWGRIVAFFEFGGVMCVESVNREMSPLVDNIALWMTEYLNRHLHTWIQDNGGWDAFVELYGPSMRPLFDFSWLSLKTLLSLALVGACITLGAYLGHK
notes: three additional N-terminal residues left by the design of the pET-15b expression vector; added start methionine: the construct starts its N-terminus with residues MGP (M before G83, P84); Bcl-2, human, the first 82 N-terminal amino acids deleted, C-terminal residues kept (full length is 239 aa); Gene bought from GenScript and sub-cloned into pET-15b; source: E. coli, pET-15b, purified as the …
In the case of B2, the binding result in test [2] is recorded as “binds”.

B3: Nur77 peptide (peptide)
peptide: Ac-FSRSLHSLL-NH2
notes: Nur77 (NR4A1), 9-residue peptide; source: synthetic peptide, bought: GenScript
For the molecule B3, in test [3], the binding result is “binds”.
